We go through six molecules from patent publication US20210188980A1 (SHANGHAI EPIMAB BIOTHERAPEUTICS, published 2021).

Numbering of substitutions follows the chain as printed.

T1: recombinant human LAG-3-his protein (Novoprotein) (human, UniProt P18627 23-450)
T1 construct: Bought; also called huLAG-3; not shown: His tag
T1 sequence (looked up): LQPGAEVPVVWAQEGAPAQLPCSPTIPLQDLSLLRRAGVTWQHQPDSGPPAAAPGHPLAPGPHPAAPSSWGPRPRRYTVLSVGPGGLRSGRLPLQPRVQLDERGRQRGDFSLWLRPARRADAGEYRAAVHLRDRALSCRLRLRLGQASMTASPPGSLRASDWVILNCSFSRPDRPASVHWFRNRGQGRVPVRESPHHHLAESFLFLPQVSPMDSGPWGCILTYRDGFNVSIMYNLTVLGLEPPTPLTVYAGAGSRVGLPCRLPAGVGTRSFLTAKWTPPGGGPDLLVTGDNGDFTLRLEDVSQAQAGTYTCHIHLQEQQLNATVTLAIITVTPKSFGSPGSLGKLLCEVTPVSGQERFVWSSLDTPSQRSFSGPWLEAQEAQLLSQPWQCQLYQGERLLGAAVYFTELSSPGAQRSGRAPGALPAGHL

B1: mAb719 (antibody, V domains shown)
VH: EVKLVESGGGLVKPGGSLKLSCTASGFSFSSHLMSWVRQTPEKRLEWVAAISGGGADTYYPDSVKGRFTISRDNAKNTLYLQMRSLRSEDTALYYCTRQILAFDSWGQGTTLTVSS
VL: DIQMNQSPSSLSVSLGDTITITCHASQNIYVWLNWYQQKPGNIPKLLIYKASNLHTGVPSRFSGGGSGTGFTLTISSLQPEDIATYYCQQGQSYPWTFGGGTKLEIK
notes: murine hybridoma anti-PD-1 mAb
B2: mAb701 (antibody, V domains shown)
VH: EVLLVESGGGLVKPGGSLKLSCAASGFTFSSYMMSWIRQTPERRLEWVASMSGGGRDTYYPDSVKGRFTISRDNAKNTLYLQMSSLRSEDTALYYCARRGTYAMDYWGQGTSVTVSS
VL: DIQMTQSPASQSASLGESVTITCLASQTIGTWLTWYQQKPGKSPQLLIYAATSLADGVPSRFSGSGSGTKFSFKISSLQAEDFVSYYCQQLYSTPWTFGGGTKLEIK
notes: as for B1
B3: mAb718 (antibody, V domains shown)
VH: QVQLQQSGAELVRPGASVTLSCKASGYTFTDYEMHWAKQTPVHGLEWIGVIEPESGGTVYNQKFKGKAKLTADKSSRTAYMELRSLTSEDSAVYYCTREGFNSDHYFDYWGQGTTLTVSS
VL: DVLMTQTPLSLPVSLGDQASISCRSSQNIVHSNGNTYLEWYLQKPGQSPKLLIYKVFNRFSGVPDRFSGSGSGTDFTLKISRVEAEDLGVYYCFQGSHVPYTFGGGTKLEIK
notes: as for B1
B4: mAb715 (antibody, V domains shown)
VH: EVMLVESGGGLLKPGGSLKLSCAASGFTFSSYAMSWVRQTPEKRLEWVATISGGGRDTYYPDSVKGRFTISRDNAKNTLYLQMTSLRSEDTAFYYCAGQGGTYLFASWGQGTLVTVSA
VL: DIVMTQSHKFMSTSVGDSVTITCKASQDVNTAVAWYQQKPGQPPKVLIYWASTRHTGVPDRFTGSGSGTDYTLTISSVQAEDLALYYCQQHYTTPYTFGGGTKLEIK
notes: as for B1
B5: mAb709 (antibody, V domains shown)
VH: B4 VH with M3K, L12V, S31F, A33T, Q82H, T84S, F93L, T102N, S107Y
VL: B4 VL with A32V, P43S, P44L, Y49S, D60A, K103Q
notes: as for B1
B6: D1-70-IgG (antibody, V domains shown)
VH: EVQLVQSGAEVKKPGASVKVSCKASGFNIKDDYMHWVRQAPGQGLEWIGWIVPRNGNTMYASKFQGRVTITADTSINTAYMELSRLRSDDTAVYYCTVYGDYWGQGTTVTVSS
VL: DIQMTQSPSSLSASVGDRVTINCRASQEISGYLSWLQQKPEGTIKRLIYAASTLDLGVPSRFSGSRSGSDYTLTISSLQPEDFATYYCLQYASYPLTFGGGTKVEIK
notes: human IgG1/kappa constant domains

In one experiment the target is T2, human PD-1 ECD/Fc fusion protein (human).
T2 construct: also called huPD-1/Fc; HuPD-1 ECD/Fc
As to the kind of experiment: ELISA, coated huPD-1/Fc. How it is done: ELISA plates were incubated overnight at 4° C. with 50 μl of the synthetic human PD-1 ECD/Fc fusion protein targets described above diluted in PBS buffer, pH 7.4, at 1 μg/ml. Plates were washed four times in washing buffer (PBS containing 0.05% Tween 20), and blocked for 1 hour at 37° C. with 200 μl per well blocking buffer (1% BSA in PBS containing 0.05% Tween 20). After blocking buffer was removed, hybridoma supernatant (or later diluted purified mAbs) were added to the wells at 100 μl per well and incubated at 37° C. for 1 hour. The wells were washed four times with washing buffer, and anti-mouse HRP (Sigma) for mouse anti-human PD-1 antibody characterization were diluted 1:5000 and added to the wells at 100 μl per well. The plates were incubated for 1 hour at 37° C. and washed four times in washing buffer. 100 μl of tetramethylbenzidine (TMB) chromogenic solution were added per well. Following color development, the reaction was stopped with 1 Normal HCl and absorbance at 450 nm was measured on a SpectraMax M5e plate reader (Molecular Devices; San Jose, Calif., US).
A binding ELISA was performed in the same way as described in Example 1.3 above. Each purified antibody was 10-fold serially diluted and duplicated. After blocking of the 96-well assay plate with wells containing immobilized PD-1 ECD/Fc fusion protein targets, the purified antibody samples with diluted concentrations were added to wells of assay plates. The HRP-linked anti-mouse IgG antibody (A0168, Sigma) and TMB reagent were used to detect and develop the ELISA signal, which were read on a SpectraMax® M5e plate reader at wavelength of 450 nm. Curves were fitted using GraphPad software, and EC50 were calculated. Similarly, a receptor blocking assay (RBA) was also performed as described in Example 1.5 with titrated, purified antibodies, and top blocking percentages and IC50 values were determined.
What is called EC50 is the midpoint of the concentration-response curve. A high value points to weaker potency. For the molecule B1, the 50% effective concentration (EC50) came to 0.02 nM.
The same measure, in the same setting: as for B2, the figure is 0.1 nM; as for B3, 0.02 nM.
On the same count and under the same terms, the same measure for B4: 0.04 nM; for B5: 0.01 nM.

For the next experiment, the target named is T3, human PD-1 expressed on cells (human, UniProt Q15116 25-288).
T3 construct: whole, on cells; also called CHO-K1/huPD-1; CHO-K1-hPD-1 cells
In words: FACS, CHO-K1/huPD-1 cells. How it is done:
(§1) CHO-K1/huPD-1 or CHO-K1/cynoPD-1 cells, described above, were charged at 2×10⁴ cell per well into 96-well assay round-bottomed assay plates (Cat. No. 3799; Corning) and stained with purified anti-PD-1 antibodies. PD-1 antibodies were detected with AlexaFluor® Donkey anti-Mouse IgG (H+L) Highly Cross-Adsorbed Secondary Antibody, (Cat. No. A21202; Invitrogen), and cell fluorescence was monitored using a flow cytometer. The data were processed by GraphPad software, and EC50 values were calculated.
A general note: Flow cytometry measures light scatter and fluorescence of single cells or particles in a stream.
With B1, the EC50 came out at 1.7 nM.
Still for that read-out and setting: as for B2, the figure is 3 nM; as for B3, 3.2 nM; as for B4, 1.1 nM.
Same read-out and setting: as for B5, the figure is 0.2 nM.

Another experiment concerns the target T4, cynomolgus PD-1 expressed on CHO-K1 cells (cynomolgus monkey, UniProt B0LAJ3 25-288).
T4 construct: also called CHO-K1/cynoPD-1; CHO-K1-cynoPD-1
In words: FACS, CHO-K1/cynoPD-1 cells. How it is done: as §1
With B1, a half-maximal response (EC50) required 2.1 nM. That is a single-digit nanomolar value.
Same read-out and setting: the same measure for B2: 3.8 nM; for B3: 4.2 nM; for B4: 0.9 nM.
Take B5: it took 0.2 nM to reach a half-maximal effect (EC50).

The target of another experiment is T2, human PD-1 ECD/Fc fusion protein. As to the kind of experiment: SPR Biacore, mAb captured, huPD-1/Fc analyte. How it is done: The binding kinetics of purified antibodies were measured by surface plasmon resonance using a Biacore […] instrument (GE Healthcare) using standard procedures. Briefly, goat anti-mouse IgG Fc polyclonal antibody (Genway) was directly immobilized across a biosensor chip, and antibodies samples were injected over reaction matrices at a flow rate of 5 μl/min. The association and dissociation rate constants, kₒₙ(M⁻¹ s⁻¹) and koff (s⁻¹) respectively, were determined with a continuous flow rate of 30 μl/min. Rate constants were derived by making kinetic binding measurements at five different concentrations of human PD-1/Fc protein. The equilibrium dissociation constant KD (M) of the reaction between antibodies and related target proteins was then calculated from the kinetic rate constants using the formula KD=koff/kₒₙ.
(Surface plasmon resonance follows binding to a sensor surface in real time, without labels.)
Usually Kd stands for the equilibrium constant for the complex coming apart. High values mean lower affinity, low ones higher affinity. The koff is the rate constant with which the complex falls apart. By kon is commonly meant the second-order rate constant of association. The low end stands for slower complex formation, the high end for faster complex formation. Turning to B1, binding was put at a Kd of 3 nM, the koff turned out to be 0.000215 s⁻¹ and the kon amounted to 71500 M⁻¹ s⁻¹.
The matching figures for B2: 6.81 nM, 0.000512 s⁻¹ and 75200 M⁻¹ s⁻¹.
The like results for B3 were, in that order, 4.84 nM, 0.000283 s⁻¹ and 58400 M⁻¹ s⁻¹.
The matching figures for B4: 1.5 nM, 0.000237 s⁻¹ and 158000 M⁻¹ s⁻¹.
For B5, the Kd was found to be 0.939 nM, the koff was 0.000104 s⁻¹ and the kon is 111000 M⁻¹ s⁻¹.

A further experiment has the same target. As to the kind of experiment: RBA ELISA on huPD-1/Fc; competitor biotin-huPD-L1/Fc. As to the method:
(§2) Supernatants displaying PD-1 specific activity were tested for the ability to block PD-1 binding to its ligands PD-L1 and PD-L2 using immobilized human PD-1 ECD/Fc as a target and PD-L1/Fc and PD-L2/Fc fusion proteins, prepared in the same manner as the PD-1 ECD/Fc binding proteins described in Example 1.3 above. To determine the relative potency of the antibody-containing supernatants, their ability to inhibit the binding of a human PD-1 ligand (PD-L1 or PD-L2) to human PD-1 protein was evaluated. ELISA plates were coated with 100 μl of 50 ng/m of huPD-1/Fc (i.e., the extracellular domain of PD-1 grafted onto the N-terminus of a human Fc region, recovered as a homodimer) in PBS and incubated overnight at 4° C. Plates were washed four times in washing buffer (PBS containing 0.05% Tween 20) and blocked for 1 hour at 37° C. with 200 μl per well of blocking buffer (1% BSA in PBS containing 0.05% Tween 20). After blocking buffer was removed, hybridoma supernatant (50 μl) was added to the wells, mixed with either 50 μl biotinylated human PD-L1/Fc ([…] final concentration) in blocking buffer or 50 μl biotinylated human PD-L2/Fc (final concentration 50 μg/ml) in blocking buffer, then incubated at 37° C. for 1 hour. Signal was developed by adding streptavidin-HRP (Sigma, Cat. No. S2468) (100 μl/well of streptavidin-HRP at 1:5000 dilution) and incubating for 40 minutes at 37° C. and washed four times in washing buffer. 100 μl of TMB solution were added per well. Following color development, the reaction was stopped with 1 Normal HCl and absorbance at 450 nm was measured. […]
On the technique in general: ELISA stands for enzyme-linked immunosorbent assay.
One may read the IC50 as the concentration that gives 50% inhibition. Read a high IC50 as weaker potency in that assay. With B1, the IC50 was determined as 3.39 nM and the “TOP inhibition (%)” value turned out to be 96.5%.
The matching figures for B2: 5.32 nM and 87.1%.
The like results for B3 were, in that order, 4.19 nM and 96.6%.
The like results for B4 were, in that order, 2.91 nM and 86.9%.
As to B5, the IC50 stood at 0.8 nM and the “TOP inhibition (%)” value was determined as 91.6%.

For another experiment the target is unchanged. As to the kind of experiment: RBA ELISA on huPD-1/Fc; competitor biotin-huPD-L2/Fc. As to the method: as §2
For the molecule B1, the IC50 stood at 1.85 nM and the “TOP inhibition (%)” value worked out at 95.2%.
The matching figures for B2: 2.67 nM and 94.1%.
The matching figures for B3: 1.91 nM and 96.6%.
The matching figures for B4: 2.17 nM and 88%.
Turning to B5, the IC50 came to 0.52 nM and the “TOP inhibition (%)” value turned out to be 93.7%.

A further experiment deals with T1, recombinant human LAG-3-his protein …. As to the kind of experiment: BLI Octet, Ab on AHC sensor, huLAG-3-his; test group 2. As to the method: All 9 humanized antibodies (Table 25) and a chimeric antibody having the parental murine VH and VL domains (mAb747c) were ranked by dissociation rate constant (koff). Briefly, antibodies were characterized for affinities and binding kinetics by Octet RED96 biolayer interferometry (Pall FortéBio LLC). Antibodies were captured by Anti-HIgG Fc Capture (AHC) Biosensors (Pall) at a concentration of 100 nM for 30 seconds. Sensors were then dipped into running buffer (1× pH7.2 PBS, 0.05% Tween 20, 0.1% BSA) for 60 seconds to check baseline. Binding was measured by dipping sensors into a single concentration of recombinant human LAG-3-his protein (Novoprotein). Dissociation was followed by dipping sensors into running buffer for 1200 seconds. The association and dissociation curves were fitted to a 1:1 Langmuir binding model using FortéBio Data Analysis software (Pall).
The seven Fab clones were converted to full IgG proteins. Briefly, the VH and VL genes were produced synthetically and then cloned into vectors containing coding sequences for the human IgG1 and human kappa constant domains, respectively. The heavy chain and cognate light chain plasmids were co-transfected into HEK 293E cells, individually. After approximately six days of post-transfection cell culture, the supernatants were harvested and subjected to Protein A affinity chromatography. The affinity of purified antibodies was ranked by Octet® RED96 biolayer interferometry (see, Example 9.1, supra).
Regarding B6, the koff was 0.0026 s⁻¹ and the “off-rate ratio to that of mAb747c” value came out at 160%.
